# T1: human C1s (human, UniProt P09871 16-688)
# T1 construct: also called hC1s; serum-derived human C1s (CompTech)
# T1 sequence: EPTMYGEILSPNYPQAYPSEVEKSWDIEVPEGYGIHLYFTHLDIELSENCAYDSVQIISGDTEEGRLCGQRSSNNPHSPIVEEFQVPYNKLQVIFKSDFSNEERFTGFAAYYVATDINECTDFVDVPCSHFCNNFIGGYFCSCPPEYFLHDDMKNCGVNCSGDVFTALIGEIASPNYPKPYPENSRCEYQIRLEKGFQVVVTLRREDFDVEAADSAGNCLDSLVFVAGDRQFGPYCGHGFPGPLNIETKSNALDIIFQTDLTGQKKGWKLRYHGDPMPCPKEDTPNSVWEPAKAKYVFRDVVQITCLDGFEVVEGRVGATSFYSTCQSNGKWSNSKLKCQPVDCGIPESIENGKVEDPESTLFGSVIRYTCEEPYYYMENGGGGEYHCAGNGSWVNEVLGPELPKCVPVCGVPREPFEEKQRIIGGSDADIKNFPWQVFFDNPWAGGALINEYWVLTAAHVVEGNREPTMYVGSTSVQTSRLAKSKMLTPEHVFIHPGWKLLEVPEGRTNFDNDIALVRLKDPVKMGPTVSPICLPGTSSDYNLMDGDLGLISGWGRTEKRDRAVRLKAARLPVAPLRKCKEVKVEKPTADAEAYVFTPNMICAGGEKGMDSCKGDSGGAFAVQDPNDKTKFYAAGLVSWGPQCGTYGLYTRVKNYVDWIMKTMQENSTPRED
# Target: T1, human C1s
# Test: SPR, Ab captured; pH 7.4, 1.2 mM Ca
# Method: Each antibody was captured onto the sensor surface by protein A/G. Antibody capture levels were aimed at 200 resonance unit (RU). Serum-derived human C1s (CompTech) or recombinant C1s prepared in EXAMPLE 1 was injected at 50 nM, followed by dissociation. The sensor surface was regenerated in each cycle with 10 mM Glycine-HCl, pH 1.5. […] The ratio of KD 5.8+ to KD 7.4+(“KD 5+/7+”) and that of KD 5.8− to KD 7.4+(“KD 5−/7+”) were calculated. When the KD 5+/7+ or KD 5−/7+ of a variant is larger than that of the parent antibody IPN009VH2-SG4GK/IPN009VK3-SK1, that variant is considered to be “pH”- or “pH and Ca”-dependent, respectively. When binding response in 5(+) buffer and/or in 5(−) buffer of a variant is much lower than that of IPN09VH2/IPN009VK3, that variant is also considered as “pH”- and/or “pH and Ca”-dependent. Therefore, such mutations are effective to generate “pH”- and/or “pH and Ca”-dependent antibody. To further enhance “pH” and/or “pH and Ca” dependency, a combination of histidine mutations was conducted. Antibodies with combinations of histidine mutations were evaluated using Biacore by the method described above.
# C1_1IPN92H0033 (SEQ ID NO: 17)-SG4GK/IPN93L0024 (SEQ ID NO: 18)-SK1 (IPN92H0033/IPN93L0024) was selected for further optimization. Histidine, Lysine, Arginine, aspartic acid, glutamic acid, and glutamine scanning was conducted for CDRs and certain positions of FRs of IPN92H0033/IPN93L0024. Variants with a mutation were generated and purified, and evaluated using Biacore by the method mentioned above. All variants were evaluated using Biacore as mentioned above. Mutations that improved “pH” and/or “pH and Ca” dependency were selected for the combination.
Binder,Kd,koff,kon
"C1_IPN92H0166-SG4GK/IPN93L0024-SK1 (antibody, human IgG4 S228P, kappa, name in Kabat numbering, V domains shown, also called IPN92H0166/IPN93L0024) VH: EVMLVESGGGLVKPGGSLRLSCAASGFTFSNYAMSWVRQAPGKGLEWVATISSGGSHTYYEDSVKGRFTISRDNSKDTLYLQMNSLRAEDTALYYCARLFTGHAMDYWGQGTLVTVSS VL: QIVLTQSPATLSLSPGERATLSCTASSSVSSSYLHWYQQKPGKAPKLWIYSTSNLASGVPSRFSGSGSGTDYTLTISSLQPEDFATYYCHQYYRLHPITFGQGTKLEIKR",1.76 nM,0.000518 s⁻¹,294000 M⁻¹ s⁻¹
"C1_IPN92H0188-SG4GK/IPN93L0024-SK1 (antibody, human IgG4 S228P, kappa, name in Kabat numbering, V domains shown, also called IPN92H0188/IPN93L0024) VH: EVMLVESGGGLVKPGGSLRLSCAASGFTFSNYAMSWVRQAPGKGLEWVATISSGGSHTYYLDSVDGRFTISRDNSKDTLYLQMNSLRAEDTALYYCARLFTGHAMDYWGQGTLVTVSS VL: QIVLTQSPATLSLSPGERATLSCTASSSVSSSYLHWYQQKPGKAPKLWIYSTSNLASGVPSRFSGSGSGTDYTLTISSLQPEDFATYYCHQYYRLHPITFGQGTKLEIKR",2.03 nM,0.000551 s⁻¹,271000 M⁻¹ s⁻¹
"C1_IPN92H0282-SG4GK/IPN93L0024-SK1 (antibody, human IgG4 S228P, kappa, name in Kabat numbering, V domains shown, also called IPN92H0282/IPN93L0024) VH: EVMLVESGGGLVKPGGSLRLSCAASGFTFSNYAMSWVRQAPGKGLEWVATISSGGSHTYELDSVDERFTISRDNSKDTLYLQMNSLRAEDTALYYCARLFTKHAMDYWGQGTLVTVSS VL: QIVLTQSPATLSLSPGERATLSCTASSSVSSSYLHWYQQKPGKAPKLWIYSTSNLASGVPSRFSGSGSGTDYTLTISSLQPEDFATYYCHQYYRLHPITFGQGTKLEIKR",1.65 nM,0.000632 s⁻¹,383000 M⁻¹ s⁻¹
"C1_IPN92H0231-SG4GK/IPN93L0024-SK1 (antibody, human IgG4 S228P, kappa, name in Kabat numbering, V domains shown, also called IPN92H0231/IPN93L0024) VH: EVMLVESGGGLVKPGGSLRLSCAASGFTFSNYAMSWVRQAPGKGLEWVATISSGGSHTYYLDSVKGRFTISRDNSKDTLYLQMNSLRAEDTALYYCARLFTKHAMDYWGQGTLVTVSS VL: QIVLTQSPATLSLSPGERATLSCTASSSVSSSYLHWYQQKPGKAPKLWIYSTSNLASGVPSRFSGSGSGTDYTLTISSLQPEDFATYYCHQYYRLHPITFGQGTKLEIKR",1.3 nM,0.000577 s⁻¹,444000 M⁻¹ s⁻¹
"C1_IPN92H0286-SG4GK/IPN93L0205-SK1 (antibody, human IgG4 S228P, kappa, name in Kabat numbering, also called IPN92H0286/IPN93L0205) heavy: not shown light: QIVLTQSPATLSLSPGERATLSCTASSSVSSSRLHWYQQKPGKAPKLWIYSTSNLASGVPSRFSGSGSGTDYTLTISSLQPEDFATYYCHQYHRHPPITFGQGTKLEIKRTVAAPSVFIFPPSDEQLKSGTASVVCLLNNFYPREAKVQWKVDNALQSGNSQESVTEQDSKDSTYSLSSTLTLSKADYEKHKVYACEVTHQGLSSPVTKSFNRGEC",1.58 nM,0.00156 s⁻¹,984000 M⁻¹ s⁻¹
"C1_IPN92H0281-SG4GK/IPN93L0091-SK1 (antibody, human IgG4 S228P, kappa, name in Kabat numbering, V domains shown, also called IPN92H0281/IPN93L0091) VH: EVMLVESGGGLVKPGGSLRLSCAASGFTFSNYAMSWVRQAPGKGLEWVATISSGGSKTYELDSVDERFTISRDNSKDTLYLQMNSLRAEDTALYYCARLFTKHAMDYWGQGTLVTVSS VL: QIVLTQSPATLSLSPGERATLSCTASSSVSSSRLHWYQQKPGKAPKLWIYSTSNLASGVPSRFSGSGSGTDYTLTISSLQPEDFATYYCHQYYRLHPITFGQGTKLEIKR",4.72 nM,0.00216 s⁻¹,457000 M⁻¹ s⁻¹
"C1_IPN92H0232-SG4GK/IPN93L0024-SK1 (antibody, human IgG4 S228P, kappa, name in Kabat numbering, V domains shown, also called IPN92H0232/IPN93L0024) VH: EVMLVESGGGLVKPGGSLRLSCAASGFTFSNYAMSWVRQAPGKGLEWVATISSGGSHTYYLDSVKGRFTISRDNSKDTLYLQMNSLRAEDTALYYCARLFTRHAMDYWGQGTLVTVSS VL: QIVLTQSPATLSLSPGERATLSCTASSSVSSSYLHWYQQKPGKAPKLWIYSTSNLASGVPSRFSGSGSGTDYTLTISSLQPEDFATYYCHQYYRLHPITFGQGTKLEIKR",1.5 nM,0.000609 s⁻¹,406000 M⁻¹ s⁻¹
"C1_IPN92H0281-SG4GK/IPN93L0024-SK1 (antibody, human IgG4 S228P, kappa, name in Kabat numbering, also called IPN92H0281/IPN93L0024) heavy: not shown light: QIVLTQSPATLSLSPGERATLSCTASSSVSSSYLHWYQQKPGKAPKLWIYSTSNLASGVPSRFSGSGSGTDYTLTISSLQPEDFATYYCHQYYRLHPITFGQGTKLEIKRTVAAPSVFIFPPSDEQLKSGTASVVCLLNNFYPREAKVQWKVDNALQSGNSQESVTEQDSKDSTYSLSSTLTLSKADYEKHKVYACEVTHQGLSSPVTKSFNRGEC",2.52 nM,0.001 s⁻¹,396000 M⁻¹ s⁻¹
"C1_IPN92H0288-SG4GK/IPN93L0212-SK1 (antibody, human IgG4 S228P, kappa, name in Kabat numbering, V domains shown, VH = IPN009VH2 with Y59E/K64D/G98K/Y99H (Kabat); also called IPN92H0288/IPN93L0212) VH: EVMLVESGGGLVKPGGSLRLSCAASGFTFSNYAMSWVRQAPGKGLEWVATISSGGSHTYELDSVDGRFTISRDNSKDTLYLQMNSLRAEDTALYYCARLFTKHAMDYWGQGTLVTVSS VL: QIVLTQSPATLSLSPGERATLSCTASSEVSESRLHWYQQKPGKAPKLWIYSTSNLASGVPSRFSGSGSGTDYTLTISSLQPEDFATYYCHQYYRLHPITFGQGTKLEIKR",1.81 nM,0.00117 s⁻¹,648000 M⁻¹ s⁻¹
"C1_IPN92H0282-SG4GK/IPN93L0091-SK1 (antibody, human IgG4 S228P, kappa, name in Kabat numbering, V domains shown, also called IPN92H0282/IPN93L0091) VH: EVMLVESGGGLVKPGGSLRLSCAASGFTFSNYAMSWVRQAPGKGLEWVATISSGGSHTYELDSVDERFTISRDNSKDTLYLQMNSLRAEDTALYYCARLFTKHAMDYWGQGTLVTVSS VL: QIVLTQSPATLSLSPGERATLSCTASSSVSSSRLHWYQQKPGKAPKLWIYSTSNLASGVPSRFSGSGSGTDYTLTISSLQPEDFATYYCHQYYRLHPITFGQGTKLEIKR",1.96 nM,0.000924 s⁻¹,471000 M⁻¹ s⁻¹

# Stronger by Kd, values ahead:
Kd,koff,kon,Binder
0.985 nM,0.000774 s⁻¹,786000 M⁻¹ s⁻¹,"C1_IPN92H0261-SG4GK/IPN93L0091-SK1 (antibody, human IgG4 S228P, kappa, name in Kabat numbering, V domains shown, also called IPN92H0261/IPN93L0091) VH: EVMLVESGGGLVKPGGSLRLSCAASGFTFSNYAMSWVRQAPGKGLEWVATISSGGSHTYELDSVKGRFTISRDNSKDTLYLQMNSLRAEDTALYYCARLFTKHAMDYWGQGTLVTVSS VL: QIVLTQSPATLSLSPGERATLSCTASSSVSSSRLHWYQQKPGKAPKLWIYSTSNLASGVPSRFSGSGSGTDYTLTISSLQPEDFATYYCHQYYRLHPITFGQGTKLEIKR"
0.121 nM,6.9e-05 s⁻¹,569000 M⁻¹ s⁻¹,"C1_IPN92H0253-SG4GK/IPN93L0024-SK1 (antibody, human IgG4 S228P, kappa, name in Kabat numbering, V domains shown, also called IPN92H0253/IPN93L0024) VH: EVMLVESGGGLVKPGGSLRLSCAASGFTFSNYAMSWVRQAPGKGLEWVATISSGGSHTYYLDSVKGRFTISRDNSKDTLYLQMNSLRAEDTALYYCARLFTGHAMKYWGQGTLVTVSS VL: QIVLTQSPATLSLSPGERATLSCTASSSVSSSYLHWYQQKPGKAPKLWIYSTSNLASGVPSRFSGSGSGTDYTLTISSLQPEDFATYYCHQYYRLHPITFGQGTKLEIKR"
0.885 nM,0.000468 s⁻¹,529000 M⁻¹ s⁻¹,"C1_IPN92H0194-SG4GK/IPN93L0024-SK1 (antibody, human IgG4 S228P, kappa, name in Kabat numbering, V domains shown, also called IPN92H0194/IPN93L0024) VH: EVMLVESGGGLVKPGGSLRLSCAASGFTFSNYAMSWVRQAPGKGLEWVATISSGGSHTYYLDSVKERFTISRDNSKDTLYLQMNSLRAEDTALYYCARLFTGHAMDYWGQGTLVTVSS VL: QIVLTQSPATLSLSPGERATLSCTASSSVSSSYLHWYQQKPGKAPKLWIYSTSNLASGVPSRFSGSGSGTDYTLTISSLQPEDFATYYCHQYYRLHPITFGQGTKLEIKR"
0.925 nM,0.000474 s⁻¹,513000 M⁻¹ s⁻¹,"C1_IPN92H0193-SG4GK/IPN93L0024-SK1 (antibody, human IgG4 S228P, kappa, name in Kabat numbering, V domains shown, also called IPN92H0193/IPN93L0024) VH: EVMLVESGGGLVKPGGSLRLSCAASGFTFSNYAMSWVRQAPGKGLEWVATISSGGSHTYYLDSVKDRFTISRDNSKDTLYLQMNSLRAEDTALYYCARLFTGHAMDYWGQGTLVTVSS VL: QIVLTQSPATLSLSPGERATLSCTASSSVSSSYLHWYQQKPGKAPKLWIYSTSNLASGVPSRFSGSGSGTDYTLTISSLQPEDFATYYCHQYYRLHPITFGQGTKLEIKR"
0.686 nM,0.000897 s⁻¹,1.31e+06 M⁻¹ s⁻¹,"C1_IPN92H0279-SG4GK/IPN93L0091-SK1 (antibody, human IgG4 S228P, kappa, name in Kabat numbering, V domains shown, also called IPN92H0279/IPN93L0091) VH: EVMLVESGGGLVKPGGSLRLSCAASGFTFSNYAMSWVRQAPGKGLEWVATISSGGSHTYELDSVKERFTISRDNSKDTLYLQMNSLRAEDTALYYCARLFTKHAMDYWGQGTLVTVSS VL: QIVLTQSPATLSLSPGERATLSCTASSSVSSSRLHWYQQKPGKAPKLWIYSTSNLASGVPSRFSGSGSGTDYTLTISSLQPEDFATYYCHQYYRLHPITFGQGTKLEIKR"
